Like-named read-outs stand apart in the source and are kept apart here. Residues, ends and D or L forms follow the SMILES beside them.
Tests used:
human red blood cells = assay: Hemolytic activity; type: cell-based
Method: Hemolytic activity was studied by incubating the fusion constructs with human red blood cells at concentrations of 0.01, 0.1, 1, 10 and 50 μM for 2 hours. Saline and 0.1% Triton served as controls.
Hemolytic activity of the compounds was studied by incubating EP-301 and EP-302 with human red blood cells at concentrations of 0.01, 0.1, 1, 10 and 50 μM for 2 hours.

[1] = tested on: MDA-MB-435S breast cancer cells; type: cell-based, human
Method: Twelve different fusion constructs were analyzed for anti-cancer activity in vitro against MDA-MB-435S breast cancer cells and for hemolytic activity in vitro to human red blood cells. Fusion constructs of the following sequence were tested:
(§1) The peptide conjugates were freshly dissolved in saline and added into cancer cell seeded multi-well plates at increasing concentrations of 0, 0.001, 0.01, 0.1, 1, 2, 5, 10 and 100 μM. Incubations were conducted for 4 h at 37° C. Cell viability was determined using formazan conversion assays (MTT assays). Controls were treated with USP saline or 0.1% TritonX-100™ as reference for 0 and 100% cell death, respectively. Cytotoxicity was evaluated as an IC50 value.

[2] = tested on: MDA-MB-435S breast cancer cells; type: cell-based, human; conditions: 24 h
Method: as §1, with “EP-301 and EP-302 were analyzed for anti-cancer activity in vitro in a time course experiment against MDA-MB-435S breast cancer cells. EP-301 and EP-302” for “The peptide conjugates”, “0.25, 0.5, 1, 2, 4, 6 h or 24” for “4”, “value derived for EP-301 and EP-302 at each time point.” for “value.”

[3] = target: T1, nucleolin expressed on the surface of human cancer cell lines (human, UniProt P19338); assay: cell-based or functional assay
[4] = target: T1, nucleolin expressed on the surface of …; assay: cell-based or functional assay; remark: listed apart in the source
[5] = target: T1, nucleolin expressed on the surface of …; assay: cell-based or functional assay; remark: listed apart in the source
[6] = target: nucleolin on CHO (Hamster Ovary) cells (hamster)
[7] = target: T1, nucleolin expressed on the surface of …; assay: cell-based or functional assay; remark: listed apart in the source

## CC(C)C[C@H](NC(=O)[C@H](CCCNC(=N)N)NC(=O)[C@H](C)NC(=O)[C@H](CO)NC(=O)[C@H](CCCNC(=N)N)NC(=O)[C@H](CCCNC(=N)N)NC(=O)[C@H](CCC(N)=O)NC(=O)[C@H](CC(C)C)NC(=O)[C@H](CCCNC(=N)N)NC(=O)[C@H](CCCCN)NC(=O)[C@H](C)NC(=O)[C@H](Cc1ccccc1)NC(=O)[C@H](CCCCN)NC(=O)[C@H](CCCCN)NC(=O)[C@H](C)NC(=O)[C@H](Cc1ccccc1)NC(=O)[C@H](CCCCN)NC(=O)[C@H](C)NC(=O)[C@H](Cc1ccccc1)NC(=O)[C@H](CCCCN)NC(=O)[C@H](CCCCN)NC(=O)[C@H](C)NC(=O)[C@H](Cc1ccccc1)NC(=O)[C@H](CCCCN)NC(=O)[C@H](C)NC(=O)[C@H](Cc1ccccc1)NC(=O)[C@@H](N)CCCCN)C(=O)N[C@@H](CO)C(=O)N[C@@H](C)C(=O)N[C@@H](CCCCN)C(=O)O (H-KFAKFAKKFAKFAKKFAKRLQRRSARLSAK-OH)
Human red blood cells; human red blood cells, 2 hours
  HA50: 56 µM
Human red blood cells; human red blood cells, 2 hours, listed as KFAKFAKKFAKFAICKFAKR19LQRRSARLSAK30
  HA50: 56 ± 8.5 µM
[1]; MDA-MB-435S, 4 h at 37° C, MTT, read-out: IC50
  IC50: 2.2 ± 0.3 µM

## CC(C)C[C@H](NC(=O)[C@H](CCCNC(=N)N)NC(=O)[C@H](C)NC(=O)[C@@H](NC(=O)[C@H](CCCCN)NC(=O)[C@H](C)NC(=O)[C@H](Cc1ccccc1)NC(=O)[C@H](CCCCN)NC(=O)[C@H](CCCCN)NC(=O)[C@H](C)NC(=O)[C@H](Cc1ccccc1)NC(=O)[C@H](CCCCN)NC(=O)[C@H](C)NC(=O)[C@H](Cc1ccccc1)NC(=O)[C@H](CCCCN)NC(=O)[C@H](CCCCN)NC(=O)[C@H](C)NC(=O)[C@H](Cc1ccccc1)NC(=O)[C@H](CCCCN)NC(=O)[C@H](C)NC(=O)[C@H](Cc1ccccc1)NC(=O)[C@@H](N)CCCCN)C(C)C)C(=O)N[C@@H](CCC(N)=O)C(=O)N[C@@H](CCCNC(=N)N)C(=O)N[C@@H](CCCNC(=N)N)C(=O)N[C@@H](Cc1ccccc1)C(=O)N[C@@H](C)C(=O)O (H-KFAKFAKKFAKFAKKFAKVARLQRRFA-OH)
Human red blood cells
  HA50: Not hemolytic
[1]; 4 h
  IC50: 0.8 ± 0.16 µM

## CC(C)C[C@H](NC(=O)[C@H](CCCNC(=N)N)NC(=O)[C@H](C)NC(=O)[C@H](CO)NC(=O)[C@H](CCCNC(=N)N)NC(=O)[C@H](CCCNC(=N)N)NC(=O)[C@H](CCC(N)=O)NC(=O)[C@@H]1CCCN1C(=O)[C@H](CCC(=O)O)NC(=O)[C@H](CC(=O)O)NC(=O)[C@H](CCCCN)NC(=O)[C@H](CCCCN)NC(=O)[C@H](C)NC(=O)[C@H](Cc1ccccc1)NC(=O)[C@H](CCCCN)NC(=O)[C@H](CCCCN)NC(=O)[C@H](C)NC(=O)[C@H](Cc1ccccc1)NC(=O)[C@H](CCCCN)NC(=O)[C@H](C)NC(=O)[C@H](Cc1ccccc1)NC(=O)[C@H](CCCCN)NC(=O)[C@H](CCCCN)NC(=O)[C@H](C)NC(=O)[C@H](Cc1ccccc1)NC(=O)[C@H](CCCCN)NC(=O)[C@H](C)NC(=O)[C@H](Cc1ccccc1)NC(=O)[C@@H](N)CCCCN)C(=O)N[C@@H](CO)C(=O)N[C@@H](C)C(=O)N[C@@H](CCCCN)C(=O)O [EP-301] (H-KFAKFAKKFAKFAKKFAKKDEPQRRSARLSAK-OH)
Human red blood cells
  HA50: Not hemolytic
[1]; 4 h
  IC50: 64.8 µM
[2]
  IC50: 12 µM

## KFAKFAKKFAKFAKKFAKRARLQRRSARLSAK [EP-302]
[3]
  IC50 of cytotoxicity (MTT), MDA-MB-435S breast cancer cells, 4 h: 0.9 µM
[4]
  IC50 of cytotoxicity (MTT), MDA-MB-435S breast cancer cells, time course, 30 minutes: 2.3 µM
[5]
  IC50 of cytotoxicity (MTT), A549 (Lung) cells, 6 h: 4.3 µM
  IC50 of cytotoxicity (MTT), A549 (Lung) cells, 24 h: 2.4 µM
  IC50 of cytotoxicity (MTT), DU145 (Prostate) cells, 6 h: 3.1 µM
  IC50 of cytotoxicity (MTT), DU145 (Prostate) cells, 24 h: 5.1 µM
  IC50 of cytotoxicity (MTT), Daudi (NHL) cells, 6 h: 3.2 µM
  IC50 of cytotoxicity (MTT), Daudi (NHL) cells, 24 h: 2.5 µM
  IC50 of cytotoxicity (MTT), HL60 (Acute Myeloid Leukemia) cells, 24 h: 0.5 µM
  IC50 of cytotoxicity (MTT), HT 29 (Colon) cells, 6 h: 45.8 µM
  IC50 of cytotoxicity (MTT), HT 29 (Colon) cells, 24 h: 26.2 µM
  IC50 of cytotoxicity (MTT), HT 116(Colon) cells, 6 h: 6.7 µM
  IC50 of cytotoxicity (MTT), HT 116(Colon) cells, 24 h: 4.8 µM
  IC50 of cytotoxicity (MTT), K562 (Chronic Myeloid Leukemia) cells, 24 h: 2.8 µM
  IC50 of cytotoxicity (MTT), LoVo (Colon) cells, 6 h: 14.1 µM
  IC50 of cytotoxicity (MTT), LoVo (Colon) cells, 24 h: 12.5 µM
  IC50 of cytotoxicity (MTT), MCF-7 (Breast) cells, 6 h: 5.5 µM
  IC50 of cytotoxicity (MTT), MCF-7 (Breast) cells, 24 h: 6.4 µM
  IC50 of cytotoxicity (MTT), MDA-MB-231 (Breast) cells, 6 h: 4.6 µM
  IC50 of cytotoxicity (MTT), MDA-MB-231 (Breast) cells, 24 h: 3.6 µM
  IC50 of cytotoxicity (MTT), MDA-MB-435S (Breast) cells, 6 h: 1.4 µM
  IC50 of cytotoxicity (MTT), MDA-MB-435S (Breast) cells, 24 h: 1.7 µM
  IC50 of cytotoxicity (MTT), MV4-11(Acute Myeloid Leukemia) cells, 24 h: 0.5 µM
  IC50 of cytotoxicity (MTT), MiaPaCa (Pancreas) cells, 6 h: 2.1 µM
  IC50 of cytotoxicity (MTT), MiaPaCa (Pancreas) cells, 24 h: 1.9 µM
  IC50 of cytotoxicity (MTT), OVCAR-3 (Ovary) cells, 6 h: 5.2 µM
  IC50 of cytotoxicity (MTT), PC-3 (Prostate) cells, 6 h: 3.3 µM
  IC50 of cytotoxicity (MTT), PC-3 (Prostate) cells, 24 h: 3.2 µM
  IC50 of cytotoxicity (MTT), SKOV-3 (Ovary) cells, 6 h: 5.1 µM
  IC50 of cytotoxicity (MTT), SKOV-3 (Ovary) cells, 24 h: 5.2 µM
[6]
  IC50 of cytotoxicity (MTT), CHO (Hamster Ovary) cells, 6 h: 3.1 µM
  IC50 of cytotoxicity (MTT), CHO (Hamster Ovary) cells, 24 h: 3.7 µM

## KFAKFAKKFAKFAKKFAKKDEPQRRSARLSAK [EP-301]
[3]
  IC50 of cytotoxicity (MTT), MDA-MB-435S breast cancer cells, 4 h: 64.8 µM
[4]
  IC50 of cytotoxicity (MTT), MDA-MB-435S breast cancer cells, time course, 30 minutes: 48 µM
  IC50 of cytotoxicity (MTT), MDA-MB-435S breast cancer cells, time course, 6 h: > 40 µM
  IC50 of cytotoxicity (MTT), MDA-MB-435S breast cancer cells, time course, 24 h: 12 µM

## KDEPQRRSARLSAK [F3-14 mer fragment]
[7]
  IC50 of cytotoxicity (MTT), MDA-MB-435S breast cancer cells, 120 h: 11.1 µM

## RARLQRRSARLSAK
[7]
  IC50 of cytotoxicity (MTT), MDA-MB-435S breast cancer cells, 120 h: 2.4 µM

## RARLQRRSARL [R1ARLQRRSARL11]
[7]
  IC50 of cytotoxicity (MTT), MDA-MB-435S breast cancer cells, 120 h: 5.4 µM

## RARLQRRSARLS [R1ARLQRRSARLS12]
[7]
  IC50 of cytotoxicity (MTT), MDA-MB-435S breast cancer cells, 120 h: 6.5 µM

## HARLQRRSARLSAK [H1ARLQRRSARLSAK14]
[7]
  IC50 of cytotoxicity (MTT), MDA-MB-435S breast cancer cells, 120 h: 3.2 µM

## RVRLQRRSARLSAK [R1VRLQRRSARLSAK14]
[7]
  IC50 of cytotoxicity (MTT), MDA-MB-435S breast cancer cells, 120 h: 1.9 µM

## HAHLQRRSARLSAK [H1AHLQRRSARLSAK14]
[7]
  IC50 of cytotoxicity (MTT), MDA-MB-435S breast cancer cells, 120 h: 4.7 µM
